# B1: daclizumab (antibody, chains of the INN, looked up, V domains shown)
# VH: QVQLVQSGAEVKKPGSSVKVSCKASGYTFTSYRMHWVRQAPGQGLEWIGYINPSTGYTEYNQKFKDKATITADESTNTAYMELSSLRSEDTAVYYCARGGGVFDYWGQGTLVTVSS
# VL: DIQMTQSPSTLSASVGDRVTITCSASSSISYMHWYQQKPGKAPKLLIYTTSNLASGVPARFSGSGSGTEFTLTISSLQPDDFATYYCHQRSTYPLTFGQGTKVEVK
# Test system: T regulatory phenotype cells
# Design: species or system non-human primate
# Conditions: in vivo
molecule,measurement,value
B1,time of maximum depletion in % and number of T regulatory phenotype cells,2 weeks
same,time until which depletion of T regulatory phenotype cells lasted,4 weeks

# Source: US20080085261A1, “Vaccine Adjuvant” (priority 2004, published 2008)
